The source of these data is the supplement of paper PMC9170038.

The series deals with MS2 coat protein. The experiment in a line: apparent KD of MS2 coat protein; designed switch direction (-1 OFF switch, 1 ON switch): 1; higher = weaker reporter binding. A digest of the protocol:
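Transcription of designed RNA switches on Illumina chips was done by stalled E. coli RNA polymerase. SNAP-549-labelled MS2 coat protein was then titrated in doubling steps from 0.7 or 1.5 nM to 3 µM, with steps of 0.8–1.5 h at the lowest and 10–20 min at the highest concentration. The per-design median over clusters of curve-fitted normalised fluorescence is reported as apparent KD.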

[1] abbreviates: input ligand: microRNA oligo, concentration not stated.
The mark [2] stands for this setting: Eterna round: R95, input ligand: FMN 200 uM.
Setting [3] is: Eterna round: R95, input ligand: microRNA oligo, concentration not stated.
Setting [4] is: Eterna round: R95, input ligand: none.

Regarding “UGUUGUUAAUUAGGAUAUGGGCACAUGAGGAUCACCCAUGUAUUGUCGAUGCUAUGUGGACACGUUUAGAAGGAAUGGCUAACA [SameState NG2 #91] (Eterna round: R96, puzzle: Same State NG 2)”, the “apparent KD of MS2 coat protein” value runs as follows: (input ligand: FMN 200 uM) 64.4 nM; under setting [1], 55.4 nM; (input ligand: none) 64.8 nM.

In the case of “UUAACAUGAGGAUCACCCAUGUAUAGGGAGUUAGCAAUUUGACAGGAUAUUGAAGAUGUAGAUAGCAAGAAGGGUCGGUAGUCU [JR_SSNG3_Sub003] (Eterna round: R96, puzzle: Same State NG 3)”, the “apparent KD of MS2 coat protein” value is, setting by setting: (input ligand: FMN 200 uM) 39.9 nM; under setting [1], 41.3 nM; (input ligand: none) 45.9 nM.

Consider “UUAAGCCACGGGCAGGAUAUGUAUUAAAAUACAUGAGGAUCACCCAUGUGCAGGUGUAACACCUGACAGAAGGGCCAAUCGAGGC [Soteed - 6] (puzzle: Same State 2)”, for which the “apparent KD of MS2 coat protein” value reads like this: under setting [2], 36.6 nM; under setting [3], 182 nM; under setting [4], 284 nM.

Regarding “UUAAUAAUGAUAGGAUAUACAUGAGGAAUUCUCGUAGAAGGAUCAUGACAUGAGGAUCACCCAUGUAUCGCUCGAUAGAGCGUA [Mat - Same State NG 1 - JL mod - D35] (Eterna round: R96, puzzle: Same State NG 1)”, the “apparent KD of MS2 coat protein” value worked out at 447 nM (input ligand: FMN 200 uM), 149 nM under setting [1] and 326 nM (input ligand: none).

With “UUAAUGAAGUAAGGAUAUACAUGAGGAUUUCUCGUAGAAGGUACUAUACAUGAGGAUCACCCAUGUGCCGGUCCGUAGACUGGA [JL SSNG1 1.05] (Eterna round: R96, puzzle: Same State NG 1)”, the “apparent KD of MS2 coat protein” value was determined as 342 nM (input ligand: FMN 200 uM), 297 nM under setting [1] and 607 nM (input ligand: none).

With “UUAAUGAUGAUAGGAUAUACAUGAGGAAUUCUCGUAGAAGGAUCAUGACAUGAGGAUCACCCAUGUAUCGCUCGAAAGAGCGUA [Mat - Same State NG 1 - JL mod - D33] (Eterna round: R96, puzzle: Same State NG 1)”, the “apparent KD of MS2 coat protein” value came to 570 nM (input ligand: FMN 200 uM), 234 nM under setting [1] and 205 nM (input ligand: none).

Regarding “UUAAUUAUGUAAGGAUAUACAUGAGGAUUUCUCGUAGAAGGUACAUUACAUGAGGAUCACCCAUGUAGGUGUCCGUAGACGCCA [JL SSNG1 1.07] (Eterna round: R96, puzzle: Same State NG 1)”, the “apparent KD of MS2 coat protein” value amounted to 142 nM (input ligand: FMN 200 uM), 78.3 nM under setting [1] and 129 nM (input ligand: none).

As for “UUAAUUUACUGAGGAUAUCGUGUCGACUGAGGUGACAUGAGGAUCACCCAUGUGAGAAGAGGUAUCGAGAAGGCAGUAUUCAUA [JR_SSNG2_Sub021] (Eterna round: R96, puzzle: Same State NG 2)”, the “apparent KD of MS2 coat protein” value amounted to 317 nM (input ligand: FMN 200 uM), 545 nM under setting [1] and 1120 nM (input ligand: none).

As for “UUACUCAUGUAAGGAUAUGCAGCCGAAACGGCUGCAGAAGGUACUAUAAUACAUGAGGAUCACCCAUGUCAAAAUAAUUUUUAC [Mat - Same State NG 1 - JL mod - D71] (Eterna round: R96, puzzle: Same State NG 1)”, the “apparent KD of MS2 coat protein” value was found to be 44.9 nM (input ligand: FMN 200 uM), 21.7 nM under setting [1] and 27.5 nM (input ligand: none).

Regarding “UUACUCAUGUAAGGAUAUGCAGCCGUUUCGGCUGCAGAAGGUACUAUAAUACAUGAGGAUCACCCAUGUCUCUAUUAUUUAGUU [JL SSNG1 1.43] (Eterna round: R96, puzzle: Same State NG 1)”, the “apparent KD of MS2 coat protein” value reads like this: (input ligand: FMN 200 uM) 151 nM; under setting [1], 39.6 nM; (input ligand: none) 52.7 nM.

With “UUAUAACAUGAGGAUCACCCAUGUCAACAAAGUCGAGGAUAUGGGCAUAGAUUAUAAGAACCAGAAGGCGAAUAUG [Mat - Same State 1 - Mod of UCT - D41] (puzzle: Same State 1)”, the “apparent KD of MS2 coat protein” value by setting is: under setting [2], 140 nM; under setting [3], 11.3 nM; under setting [4], 1.69 nM.
